T1: tCD45RO_WT (truncated, N-terminally myc-tagged wild-type CD45RO construct) (human, UniProt P08575 1-604)
T1 construct: Expressed from lentivirus on CD45-negative NALM6 cells; also called WT CD45; CD45 WT
T1 sequence: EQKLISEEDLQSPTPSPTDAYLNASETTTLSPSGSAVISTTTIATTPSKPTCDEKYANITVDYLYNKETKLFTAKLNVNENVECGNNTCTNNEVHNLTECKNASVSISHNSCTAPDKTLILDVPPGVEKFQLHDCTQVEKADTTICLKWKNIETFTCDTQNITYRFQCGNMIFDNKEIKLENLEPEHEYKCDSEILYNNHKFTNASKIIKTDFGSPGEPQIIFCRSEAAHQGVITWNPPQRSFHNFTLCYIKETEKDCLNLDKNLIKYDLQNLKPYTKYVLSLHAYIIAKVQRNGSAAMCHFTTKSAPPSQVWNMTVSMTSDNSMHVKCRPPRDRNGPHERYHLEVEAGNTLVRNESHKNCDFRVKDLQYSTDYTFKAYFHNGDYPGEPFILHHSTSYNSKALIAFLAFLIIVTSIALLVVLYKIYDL

T2: tCD45_RO_T8A (CD45RO with Thr8 changed to alanine) (human, UniProt P08575 1-604)
T2 construct: The entry already carries the substitution, the signal peptide and the myc tag
T2 sequence: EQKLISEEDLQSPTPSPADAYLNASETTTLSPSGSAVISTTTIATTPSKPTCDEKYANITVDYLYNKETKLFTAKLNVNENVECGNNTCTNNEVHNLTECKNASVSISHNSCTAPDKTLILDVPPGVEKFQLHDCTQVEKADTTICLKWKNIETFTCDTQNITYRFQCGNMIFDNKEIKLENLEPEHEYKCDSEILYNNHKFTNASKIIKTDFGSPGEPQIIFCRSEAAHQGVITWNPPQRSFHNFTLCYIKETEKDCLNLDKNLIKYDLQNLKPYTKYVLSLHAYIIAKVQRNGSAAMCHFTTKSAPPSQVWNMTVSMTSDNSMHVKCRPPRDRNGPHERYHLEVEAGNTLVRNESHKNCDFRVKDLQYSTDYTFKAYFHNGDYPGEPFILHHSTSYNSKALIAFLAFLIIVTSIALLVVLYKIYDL


Experiments:
[1] = target: T1, tCD45RO_WT (truncated, N-terminally …); experiment: flow cytometry, his-tag staining of cells expressing myc-tagged truncated CD45 constructs
Source text: (§1) With the information obtained from the crystal structure (and given that FN domains are evolutionary conserved and stable structures), and without wishing to be bound by theory, it was hypothesized that the subdomains which are recognized by the CAR45-T cells can be narrowed down by sequentially truncating the extracellular domain. The constructs to generate the truncated CD45 constructs were de novo synthesized (FIG. 24A). To verify surface expression of the truncated CD45 constructs, all constructs were myc-tagged at the N-terminus to allow surface staining against the truncated CD45 expressing cell using anti-Myc antibodies followed by readout via flowcytometry. Cells expressing the truncated CD45 constructs were stained with recombinantly expressed, his-tagged scFv/antibody clones from which the CARs were made off. Positive staining for the his tag therefore only occurs when the scFv/antibody clones can bind truncated CD45.

[2] = target: T1, tCD45RO_WT (truncated, N-terminally …); experiment: staining of cells expressing truncated CD45 constructs with his-tagged scFv/antibody clones
Source text: as §1

[3] = target: T2, tCD45_RO_T8A (CD45RO with Thr8 changed …); experiment: antibody staining (figure cited in the text as FIG. 42, left)

Binder	binding result [2]	other results
recombinantly expressed, his-tagged scFv from the BC8 clone (scFv, V domains shown, Soluble his-tagged scFv used to stain cells; also called BC8 scFv) VH: QVQLVESGGGLVQPGGSLKLSCAASGFDFSRYWMSWVRQAPGKGLEWIGEINPTSSTINFTPSLKDKVFISRDNAKNTLYLQMSKVRSEDTALYYCARGNYYRYGDAMDYWGQGTSVTVS VL: DIVLTQSPASLAVSLGQRATISCRASKSVSTSGYSYLHWYQQKPGQPPKLLIYLASNLESGVPARFSGSGSGTDFTLNIHPVEEEDAATYYCQHSRELPFTFGSGTKLEIK		binding result [1]: binds
recombinantly expressed, his-tagged scFv/antibody clone 4B2 (scFv, V domains shown, Soluble his-tagged scFv/antibody clone used to stain cells expressing truncated CD45; also called 4B2 scFv) VH: GVQLQESGAELARPGASVKMSCKASGYTFTSYTMQWVKQRPGQGLEWIGYINPSSGYIKYNQKFKDKVTLTADKSSTTAYMQLSRLTSEDSAVYYCARRGSYFFDFWGQGTSVTVSS VL: DIVITQDELSNPVTSGESVSISCRSSKSLLYKDGKTYLNWFLQRPGQSPQLLIYLMSTRASGVSDRFSGSGSGTDFTLEISRVKAEDVGVYYCQQLVEYPFTFGGGTKLEVK	binds	
recombinantly expressed, his-tagged scFv/antibody clone 9.4 (scFv, V domains shown, Soluble his-tagged scFv/antibody clone used to stain cells expressing truncated CD45; also called 9.4 scFv) VH: QVQLQQLGAELARPGASVKMSCKASGYTFTSYSIQWVKQRPGQGLEWIGYINPSSGYIKYNQHFRDRATLTADRSSSTAYMQLSSLTSEDSAVYYCARGNSGSFDYWGQGTTLTVSS VL: DIVMTQAAPSVPVTPGESLSISCRSSKSLLHSSGITYLYWFLQRPGQSPQLLIYRMSNLASGVPDRFSGSGSGTAFTLRISRVEAEDVGVYYCMQHLEYPFTFGGGTKLEIK	binds	
recombinantly expressed, his-tagged scFv/antibody clone Gap8.3 (scFv, V domains shown, Soluble his-tagged scFv/antibody clone used to stain cells expressing truncated CD45; also called Gap8.3 scFv) VH: EVQLQQSGPELVKTGASVKISCKASGYSFTGYFIHWVKQSHGKSLEWIGYISCYNGATSYNQKFKGKATFTVDTSSSTAYMQFNSVTSEDSAVYYCVRNYYGNLDAMDYWGQGTSVTVSS VL: DIVMTQSHKFMSTSVGDRVSITCKASQDVSTAVAWYQQKPGQSPKILIYSASYRYTGVPDRFTGSGSGTDFTFTISSVQAEDLAVYYCQQHYSTPRTFGGGTKLEIK	binds	
antibody clone UCHL-1 (CD45RO-specific) (antibody, V domains shown, also called muUCHL) VH: QITLKESGPGILQPSQTLSLTCSFSGFSLTTYGIGVGWIRQPPGKGLEWLTHIWWNDNKYYNTALRSRLTISKDSSNNQVLLKIANVDTADTATYYCLYGYTYWGQGTLVTVSA VL: DVVMTQTPLSLPVSLGDQASISCRSSQSLLYSNGNTYLHWYLQKPGQSPKLLIYKLSNRFSGVPDRFSGSGSGTDFTLKISRVEAEDLGVYFCSQSTHVPWTFGGGTKLEIK		binding result [3]: no binding
